For experiment [1], the target named is T1, HER2 (ErbB2/Neu) on the surface of HER2-overexpressing cancer cells (human, UniProt P04626 23-1255).
T1 construct: whole, on cells; also called HER2 on BT474, SkBr3, SkOv3 cells
In words: dissociation from BT474 cells by flow cytometry in the presence of a competing DARPin.

In experiment [2] the target is T2, HER2 (form in the assay not stated) (human, UniProt P04626 23-652, limits assumed). In words: method not stated.
In experiment [3] the target is T1, HER2 (ErbB2/Neu) on the surface of …. As to the kind of experiment: flow cytometry on intact BT474 cells, Alexa488-labelled agent. Background: Flow cytometry measures light scatter and fluorescence of single cells or particles in a stream.
Procedure: Cells were detached by collagenase and EDTA for 5 min at 37° C. The solution was quenched by addition of medium and centrifuged at 300 g for 3 min. Cells were washed twice in warm PBS. […] Internalization was blocked by incubation in PBS containing 0.2% NaN₃ and 1% BSA for 30 min at 37° C.
For each time point, a 1 ml aliquot of cells is withdrawn and subjected to FACS. Since the applied concentrations of the labeled ligand conjugates are very low, and since the time resolution of the measurement is to be maintained to ensure the accuracy of the on-rate determination, the samples are processed without further washing. For each time point, at least 10⁴ intact cells (gated as a uniform population on a FSC/SSC scatter plot) are counted, and the MFI (mean fluorescence intensity) is recorded.
Corresponding to 100 μl cell suspension, samples were washed twice in 1 ml PBS (0.2% NaN₃, 1% BSA) and centrifuged at 600 g for 30 sec at room temperature. Cells were resuspended in 1 ml PBS (0.2% NaN₃, 1% BSA) containing 100 nM of equivalent unlabeled binding agent. The dissociation reaction was incubated for the indicated times (15, 30, 60, 120, 180 and 240 min) at room temperature while continuously stirring in the dark. Dissociation was stopped by placing the cell pellets on ice. Each sample was washed once with 1 ml cold PBS.
Experiment [4] has as its target T2, HER2 (form in the assay not stated). In words: method and HER2 form not stated.

The Kd is a measure of binding affinity in units of concentration. Broadly, the koff is the first-order rate constant of dissociation. High values mean a short-lived complex, low ones a long-lived complex. What is called kon is a measure of how fast the partners come together. Read a high kon as fast association.

B1: 9_29-(G4S)4-G3 (designed binder)
chain: MRGSHHHHHHGSDLGKKLLEAARAGQDDEVRILMANGADVNAHDFYGITPLHLAANFGHLEIVEVLLKHGADVNAFDYDNTPLHLAADAGHLEIVEVLLKYGADVNASDRDGHTPLHLAAREGHLEIVEVLLKNGADVNAQDKFGKTAFDISIDNGNEDLAEILQKLGGGGSGGGGSGGGGSGGGGSRSDLGKKLLEAARAGQDDEVRILMANGADVNAKDEYGLTPLYLATAHGHLEIVEVLLKNGADVNAVDAIGFTPLHLAAFIGHLEIAEVLLKHGADVNAQDKFGKTAFDISIGNGNEDLAEILQKLN
modifications: fluorescently labelled in FIG. 18A (dye and site not carried by the letters)
notes: 20 amino acid (G4S)4 linker; also called 9_20_G
Take B1: in experiment [1], the “fold lower off-rate than monovalent G3” value was 10 fold.

B2: DARPin G3 (designed binder)
chain: GSDLGKKLLEAARAGQDDEVRILMANGADVNAKDEYGLTPLYLATAHGHLEIVEVLLKNGADVNAVDAIGFTPLHLAAFIGHLEIAEVLLKHGADVNAQDKFGKTAFDISIGNGNEDLAEILQKLN
Turning to B2, binding in experiment [2] was put at a Kd of 0.09 nM.

B3: DARPin 929 (designed binder)
chain: MRGSHHHHHHGSDLGKKLLEAARAGQDDEVRILMANGADVNAHDFYGITPLHLAANFGHLEIVEVLLKHGADVNAFDYDNTPLHLAADAGHLEIVEVLLKYGADVNASDRDGHTPLHLAAREGHLEIVEVLLKNGADVNAQDKFGKTAFDISIDNGNEDLAEILQKLN
modifications: Alexa Fluor-488 label in the flow-cytometry kinetics (attachment site not given)
notes: Member of the 9XX collection
In experiment [3], B3 came in with a Kd of 33.5 nM, a koff of 0.00221 s⁻¹ and a kon of 69000 M⁻¹ s⁻¹. In experiment [4], this molecule had a Kd of 3.8 nM, a koff of 0.0008 s⁻¹ and an on-rate (kon) of 200000 M⁻¹ s⁻¹. In experiment [2], the Kd worked out at 1 nM.

B4: DARPin 926 (designed binder)
chain: MRGSHHHHHHGSDLGKKLLEAARAGQDDEVRILMANGADVNAKDFYGITPLHLAAAYGHLEIVEVLLKHGADVNAHDWNGWTPLHLAAKYGHLEIVEVLLKHGADVNAIDNAGKTPLHLAAAHGHLEIVEVLLKYGADVNAQDKFGKTAFDISIDNGNEDLAEILQKLN
notes: Member of the 9XX collection
In experiment [4], B4 yielded a Kd of 1.4 nM, a koff of 0.0001 s⁻¹ and a kon of 70000 M⁻¹ s⁻¹. In addition, the Kd in experiment [2] amounted to 1 nM.

B5: 9_26-(G4S)4-G3 (designed binder)
chain: MRGSHHHHHHGSDLGKKLLEAARAGQDDEVRILMANGADVNAKDFYGITPLHLAAAYGHLEIVEVLLKHGADVNAHDWNGWTPLHLAAKYGHLEIVEVLLKHGADVNAIDNAGKTPLHLAAAHGHLEIVEVLLKYGADVNAQDKFGKTAFDISIDNGNEDLAEILQKLGGGGSGGGGSGGGGSGGGGSRSDLGKKLLEAARAGQDDEVRILMANGADVNAKDEYGLTPLYLATAHGHLEIVEVLLKNGADVNAVDAIGFTPLHLAAFIGHLEIAEVLLKHGADVNAQDKFGKTAFDISIGNGNEDLAEILQKLN
modifications: fluorescently labelled in the dissociation assay; dye and site not stated
notes: 20 amino acid (G4S)4 linker; also called 6_20_G
In the case of B5, the “fold lower off-rate than monovalent G3” value in experiment [1] turned out to be 10 fold.

B6: DARPin H14 (designed binder)
chain: GSDLGKKLLEAARAGQDDEVRILMANGADVNATDIHGHTPLHLAAAMGHLEIVEVLLKNGADVNANDWRGFTPLHLAALNGHLEIVEVLLKNGADVNATDTAGNTPLHLAAWFGHLEIVEVLLKNGADVNAQDKFGKTAFDISIDNGNEDLAEILQKLN
Take B6: in experiment [3], the equilibrium dissociation constant (Kd) is 0.97 nM, the koff was 0.000179 s⁻¹ and the kon turned out to be 196000 M⁻¹ s⁻¹. In experiment [4], this molecule yielded a dissociation constant Kd of 0.2 nM, a koff of 0.0001 s⁻¹ and an on-rate (kon) of 410000 M⁻¹ s⁻¹.

B7: G3-(G4S)4-9_26 (designed binder)
chain: MRGSHHHHHHGSDLGKKLLEAARAGQDDEVRILMANGADVNAKDEYGLTPLYLATAHGHLEIVEVLLKNGADVNAVDAIGFTPLHLAAFIGHLEIAEVLLKHGADVNAQDKFGKTAFDISIGNGNEDLAEILQKLGGGGSGGGGSGGGGSGGGGSRSDLGKKLLEAARAGQDDEVRILMANGADVNAKDFYGITPLHLAAAYGHLEIVEVLLKHGADVNAHDWNGWTPLHLAAKYGHLEIVEVLLKHGADVNAIDNAGKTPLHLAAAHGHLEIVEVLLKYGADVNAQDKFGKTAFDISIDNGNEDLAEILQKLN
modifications: fluorescently labelled in FIG. 18A (dye and site not carried by the letters)
notes: Opposite orientation of 6_20_G; also called G_20_6
Take B7: the “fold lower off-rate than monovalent G3” value in experiment [1] was found to be 10 fold.

Source of the values: patent publication US20190127481A1 (UNIVERSIT T Z RICH, published 2019).
